# Results as given in patent US20030118557A1, “Axon repair” (priority 2001, published 2003).
# Tested on: dorsal root ganglion (DRG) neurons
# Test: short-term in vitro axon outgrowth assay with adult DRG neurons from transgenic mice
# Assay type: cell-based
# Details: for propensity / number of adult DRG neurons that extended axons: acute outgrowth assay, naive neurons; for extension of long (>300 μm) axons: naive adult DRG neurons from transgenic mice, short-term culture
# Method: For the in vitro analysis, dorsal root ganglion (DRG) neurons from adult mice (>8 weeks) were dissociated essentially as described (Smith et al, J. Neurosci. 17:646-658 (1997)), and centrifuged at 200×g for 10 minutes through a cushion of 10% Ficoll in F14 culture medium to remove myelinated axons, cellular debris and non-neuronal cells. Neurons were resuspended in serum-free F14 medium containing N1 supplements, and plated on polylysine/laminin coated glass coverslips as described (Smith et al, J. Neurosci. 17:646-658 (1997)). Cells from 12-14 ganglia were plated in 12 wells of a standard 24-well plate. After 18-24 hours, cultures were fixed in 4% paraformaldehyde for 30 minutes at room temperature, washed and stained with antibodies to detect neurons expressing chicken CAP-23 (monoclonal antibody 15C1) and chicken GAP-43 (rabbit polyclonal antibody) (Caroni et al, J. Cell Biol. 136:679-692 (1997), Aigner et al, Cell 83:269-278 (1995)). To visualize all neuronal processes, cultures were stained with antibodies to β III tubulin (MAB 1637; Chemicon, Temecula, Calif.). Cells were viewed with a CCD camera and analyzed with IPLab 3.2 for the Macintosh (Scanalytics, Inc., Fairfax, Va.). Only neurons that stained strongly for the appropriate transgene(s) were analyzed. In control cultures, cells that stained strongly for the neuron-specific β III tubulin were analyzed. Cells with processes greater than 2 cell body diameters were scored. The length of the longest process for each cell, and the number of branches formed along that process, were then measured.
# To identify genes responsible for the onset of axon regeneration, a short-term in vitro assay was used that monitors a transcription-dependent switch in axon extension induced in DRG neurons by axon injury (Smith et al, J. Neurosci. 17:646-658 (1997)). Neurons are removed from adult animals and cultured for 18-24 hours (Smith et al, J. Neurosci. 17:646-658 (1997)). Because the neurons are axotomized during this removal, they will eventually respond by inducing the full complement of growth-associated genes (Smith et al, J. Neurosci. 17:646-658 (1997)). Over the first 24 hours in culture, however, axon outgrowth depends only on genes that were already expressed in the neurons at the time of their removal from the animal (Smith et al, J. Neurosci. 17:646-658 (1997)). Neurons isolated from adult mice with no prior manipulation (naive neurons) supported a limited amount of outgrowth (Smith et al, J. Neurosci. 17:646-658 (1997)) and FIG. 1), characterized by the emergence of relatively short and highly branched axons (FIGS. 2 and 3). In contrast, neurons that had responded to a peripheral nerve lesion several days before removal were much more likely to extend axons (FIG. 1), and those axons were long and sparsely branched (FIGS. 2 and 3). This “elongating” growth resembles the extension required for nerve regeneration in vivo, and reflects the expression of genes induced by peripheral nerve injury (Smith et al, J. Neurosci. 17:646-658 (1997)).
molecule,measurement,setting,value
"CAP-23: growth cone protein; chicken CAP-23 transgene expressed in mouse neurons under Thy-1 promoter (protein, UniProt P23614 2-244, looked up, transgene in mouse neurons, growth cone protein; chicken CAP-23 transgene expressed in mouse neurons under Thy-1 promoter) Brain acid soluble protein 1 …: GGKLSKKKKGYSVNDEKAKDKDKKAEGAATEEEETPKEAEDAQQTTETTEVKENNKEEKVEKDAQVSANKTEEKEGEKEKTVTQEEAQKAEPEKSEAVVDAKVEPQKNNEQAPKQEEPAAASAPAASSEAPKTSEPSSDAKASQPSEATAPSKADDKSKEEGEAKKTEAPATPAAQETKSEVAPASDSKPSSSEAAPSSKETVAATAAPSSTAKASDPSAPPEEAKPSEAPATNSDQTIAVQD",propensity / number of adult DRG neurons that extended axons,,increased the number
same,extension of long (>300 μm) axons,,did not elicit extension of long axons
"GAP-43: growth-associated growth cone protein; chicken GAP-43 transgene expressed in mouse neurons under Thy-1 promoter (protein, UniProt P35001 1-246, looked up, transgene in mouse neurons, growth-associated growth cone protein; chicken GAP-43 transgene expressed in mouse neurons under Thy-1 promoter) Neuromodulin: MLCCMRRTKQVEKNEDGDQKIEQDGIKPEDKAHKAATKIQASFRGHITRKKLKGEKKADAPASESEAADKKDEGPAGGAAENKESEASAATEASAADSAQLDEGSKDSSVPAEEKKGNGAADTGSEQPAPQAATPAASSEEKPAAAAETESATKASTDNSPSLKADEAQDKEEPKQADVPAADTTATTTPAAEDATAKATAQPQMETVESSQTEEKTDAVEETKPTESAQQEEVKEEESKADQENA",propensity / number of adult DRG neurons that extended axons,,increased the propensity
same,extension of long (>300 μm) axons,,Only a small fraction
same,modal length of axons,"naive adult DRG neurons, persistent transgene expression, 18-24 hours in culture",100-150 μm
